Test results from paper PMC9957003, “Functional Analyses of Rare Germline Missense BRCA1 Variants Located within and outside Protein Domains with Known Functions” (Genes, 2023).
Where a chain is given by its changes, count along the chain named.

T1: Flag-PALB2 WT (Partner and Localiser of BRCA2) (UniProt Q86YC2 1-1186)
T1 construct: PALB2 (Partner and Localiser of BRCA2), wild type; printed both as Flag-PALB2 and as PALB2-Flag; also called PALB2-Flag; pDEST-FRT/T0-Flag-PALB2; source: HEK293FT, transiently co-transfected, in lysate
T1 sequence (looked up): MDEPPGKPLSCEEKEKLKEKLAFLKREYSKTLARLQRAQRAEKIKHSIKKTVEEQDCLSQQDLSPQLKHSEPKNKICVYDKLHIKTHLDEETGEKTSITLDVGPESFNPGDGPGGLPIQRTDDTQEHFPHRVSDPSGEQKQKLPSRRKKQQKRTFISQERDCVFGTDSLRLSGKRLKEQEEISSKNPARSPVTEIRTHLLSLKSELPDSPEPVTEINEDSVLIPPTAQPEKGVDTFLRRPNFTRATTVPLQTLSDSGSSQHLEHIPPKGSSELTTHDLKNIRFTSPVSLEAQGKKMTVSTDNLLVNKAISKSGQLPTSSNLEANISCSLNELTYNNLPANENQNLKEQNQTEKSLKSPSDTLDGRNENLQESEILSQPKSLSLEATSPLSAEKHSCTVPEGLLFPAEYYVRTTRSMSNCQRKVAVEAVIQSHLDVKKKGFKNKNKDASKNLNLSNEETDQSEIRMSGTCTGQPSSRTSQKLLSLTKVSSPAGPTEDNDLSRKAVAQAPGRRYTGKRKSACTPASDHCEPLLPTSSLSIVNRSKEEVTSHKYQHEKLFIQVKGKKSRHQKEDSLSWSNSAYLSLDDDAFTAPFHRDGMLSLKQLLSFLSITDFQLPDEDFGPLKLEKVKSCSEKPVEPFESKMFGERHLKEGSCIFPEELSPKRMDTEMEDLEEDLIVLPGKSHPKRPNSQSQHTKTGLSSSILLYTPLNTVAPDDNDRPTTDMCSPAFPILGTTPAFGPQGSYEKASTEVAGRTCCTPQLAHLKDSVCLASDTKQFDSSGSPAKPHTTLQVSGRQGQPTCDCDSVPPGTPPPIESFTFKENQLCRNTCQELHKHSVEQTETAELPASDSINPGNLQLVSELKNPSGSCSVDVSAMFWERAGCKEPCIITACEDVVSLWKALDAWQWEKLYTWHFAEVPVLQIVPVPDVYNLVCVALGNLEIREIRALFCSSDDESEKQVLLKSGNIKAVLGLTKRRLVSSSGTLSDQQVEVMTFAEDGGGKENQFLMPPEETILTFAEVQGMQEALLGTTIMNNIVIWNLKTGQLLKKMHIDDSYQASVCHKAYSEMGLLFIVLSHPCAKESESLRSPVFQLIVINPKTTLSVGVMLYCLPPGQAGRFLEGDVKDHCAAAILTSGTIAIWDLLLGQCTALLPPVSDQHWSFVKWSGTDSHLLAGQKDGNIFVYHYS

T2: BARD1-V5 WT (BRCA1-Associated RING Domain protein 1) (UniProt Q99728 1-777)
T2 construct: BARD1 (BRCA1-Associated RING Domain protein 1), wild type; also called pcDNA6.2-BARD1-V5; source: HEK293FT, transiently co-transfected, in lysate
T2 sequence (looked up): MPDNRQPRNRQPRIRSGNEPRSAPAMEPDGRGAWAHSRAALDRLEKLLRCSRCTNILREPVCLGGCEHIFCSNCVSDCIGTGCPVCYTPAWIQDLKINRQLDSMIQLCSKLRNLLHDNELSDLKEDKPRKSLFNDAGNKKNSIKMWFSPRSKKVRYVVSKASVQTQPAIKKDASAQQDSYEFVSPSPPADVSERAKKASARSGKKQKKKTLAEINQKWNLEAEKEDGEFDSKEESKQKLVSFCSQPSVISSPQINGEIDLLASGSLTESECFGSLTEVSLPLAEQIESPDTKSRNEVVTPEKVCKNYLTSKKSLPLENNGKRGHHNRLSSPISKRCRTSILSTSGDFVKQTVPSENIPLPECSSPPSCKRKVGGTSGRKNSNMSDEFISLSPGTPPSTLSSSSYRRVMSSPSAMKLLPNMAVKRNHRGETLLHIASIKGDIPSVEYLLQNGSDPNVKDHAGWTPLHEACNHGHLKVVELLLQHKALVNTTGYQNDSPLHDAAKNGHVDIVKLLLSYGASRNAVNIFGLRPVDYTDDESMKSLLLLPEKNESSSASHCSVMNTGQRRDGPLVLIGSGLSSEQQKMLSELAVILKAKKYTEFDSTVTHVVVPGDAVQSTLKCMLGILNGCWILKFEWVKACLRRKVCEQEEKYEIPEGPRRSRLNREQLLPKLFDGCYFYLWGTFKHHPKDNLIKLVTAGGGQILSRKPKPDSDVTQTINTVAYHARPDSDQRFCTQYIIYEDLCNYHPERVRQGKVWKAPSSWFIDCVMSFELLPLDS

B1: BRCA1 p.Gly933Asp (full-length, mCherry-tagged) (natural protein, human, UniProt P38398 1-1863, looked up)
chain: MDLSALRVEEVQNVINAMQKILECPICLELIKEPVSTKCDHIFCKFCMLKLLNQKKGPSQCPLCKNDITKRSLQESTRFSQLVEELLKIICAFQLDTGLEYANSYNFAKKENNSPEHLKDEVSIIQSMGYRNRAKRLLQSEPENPSLQETSLSVQLSNLGTVRTLRTKQRIQPQKTSVYIELGSDSSEDTVNKATYCSVGDQELLQITPQGTRDEISLDSAKKAACEFSETDVTNTEHHQPSNNDLNTTEKRAAERHPEKYQGSSVSNLHVEPCGTNTHASSLQHENSSLLLTKDRMNVEKAEFCNKSKQPGLARSQHNRWAGSKETCNDRRTPSTEKKVDLNADPLCERKEWNKQKLPCSENPRDTEDVPWITLNSSIQKVNEWFSRSDELLGSDDSHDGESESNAKVADVLDVLNEVDEYSGSSEKIDLLASDPHEALICKSERVHSKSVESNIEDKIFGKTYRKKASLPNLSHVTENLIIGAFVTEPQIIQERPLTNKLKRKRRPTSGLHPEDFIKKADLAVQKTPEMINQGTNQTEQNGQVMNITNSGHENKTKGDSIQNEKNPNPIESLEKESAFKTKAEPISSSISNMELELNIHNSKAPKKNRLRRKSSTRHIHALELVVSRNLSPPNCTELQIDSCSSSEEIKKKKYNQMPVRHSRNLQLMEGKEPATGAKKSNKPNEQTSKRHDSDTFPELKLTNAPGSFTKCSNTSELKEFVNPSLPREEKEEKLETVKVSNNAEDPKDLMLSGERVLQTERSVESSSISLVPGTDYGTQESISLLEVSTLGKAKTEPNKCVSQCAAFENPKGLIHGCSKDNRNDTEGFKYPLGHEVNHSRETSIEMEESELDAQYLQNTFKVSKRQSFAPFSNPGNAEEECATFSAHSGSLKKQSPKVTFECEQKEENQGKNESNIKPVQTVNITAGFPVVDQKDKPVDNAKCSIKGGSRFCLSSQFRGNETGLITPNKHGLLQNPYRIPPLFPIKSFVKTKCKKNLLEENFEEHSMSPEREMGNENIPSTVSTISRNNIRENVFKEASSSNINEVGSSTNEVGSSINEIGSSDENIQAELGRNRGPKLNAMLRLGVLQPEVYKQSLPGSNCKHPEIKKQEYEEVVQTVNTDFSPYLISDNLEQPMGSSHASQVCSETPDDLLDDGEIKEDTSFAENDIKESSAVFSKSVQKGELSRSPSPFTHTHLAQGYRRGAKKLESSEENLSSEDEELPCFQHLLFGKVNNIPSQSTRHSTVATECLSKNTEENLLSLKNSLNDCSNQVILAKASQEHHLSEETKCSASLFSSQCSELEDLTANTNTQDPFLIGSSKQMRHQSESQGVGLSDKELVSDDEERGTGLEENNQEEQSMDSNLGEAASGCESETSVSEDCSGLSSQSDILTTQQRDTMQHNLIKLQQEMAELEAVLEQHGSQPSNSYPSIISDSSALEDLRNPEQSTSEKAVLTSQKSSEYPISQNPEGLSADKFEVSADSSTSKNKEPGVERSSPSKCPSLDDRWYMHSCSGSLQNRNYPSQEELIKVVDVEEQQLEESGPHDLTETSYLPRQDLEGTPYLESGISLFSDDPESDPSEDRAPESARVGNIPSSTSALKVPQLKVAESAQSPAAAHTTDTAGYNAMEESVSREKPELTASTERVNKRMSMVVSGLTPEEFMLVYKFARKHHITLTNLITEETTHVVMKTDAEFVCERTLKYFLGIAGGKWVVSYFWVTQSIKERKMLNEHDFEVRGDVVNGRNHQGPKRARESQDRKIFRGLEICCYGPFTNMPTDQLEWMVQLCGASVVKELSSFTLGTGVHPIVVVQPDAWTEDNGFHAIGQMCEAPVVTREWVLDSVALYQCQELDTYLIPQIPHSHY
notes: BRCA1, human, full-length, rare germline missense variant introduced in the WT plasmid; Made by site-directed mutagenesis of the plasmid of m1; also called c.2798G > A; source: HEK293FT, transiently co-transfected, in lysate
B2: BRCA1 p.Arg612Gly (full-length, mCherry-tagged) (natural protein, human, UniProt P38398 1-1863, looked up)
chain: B1 chain with R612G, D933G
notes: BRCA1, human, full-length, rare germline missense variant introduced in the WT plasmid; Made by site-directed mutagenesis of the plasmid of m1; also called c.1834A > G; source: HEK293FT, transiently co-transfected, in lysate
B3: BRCA1 p.Val1378Ile (full-length, mCherry-tagged; benign control variant, coiled-coil domain) (natural protein, human, UniProt P38398 1-1863, looked up)
chain: B1 chain with D933G, V1378I
notes: BRCA1, human, full-length, benign control missense variant in the coiled-coil domain, introduced in the WT plasmid; Made by site-directed mutagenesis of the plasmid of m1; also called c.4132G > A; source: HEK293FT, transiently co-transfected, in lysate
B4: BRCA1 p.Leu1439Phe (full-length, mCherry-tagged) (natural protein, human, UniProt P38398 1-1863, looked up)
chain: B1 chain with D933G, L1439F
notes: BRCA1, human, full-length, rare germline missense variant introduced in the WT plasmid; Made by site-directed mutagenesis of the plasmid of m1; also called c.4315C > T; source: HEK293FT, transiently co-transfected, in lysate
B5: BRCA1 p.Gly890Arg (full-length, mCherry-tagged) (natural protein, human, UniProt P38398 1-1863, looked up)
chain: B1 chain with G890R, D933G
notes: BRCA1, human, full-length, rare germline missense variant introduced in the WT plasmid; Made by site-directed mutagenesis of the plasmid of m1; also called c.2668G > A; source: HEK293FT, transiently co-transfected, in lysate
B6: BRCA1 p.Met1411Thr (full-length, mCherry-tagged; pathogenic control variant, coiled-coil domain) (natural protein, human, UniProt P38398 1-1863, looked up)
chain: B1 chain with D933G, M1411T
notes: BRCA1, human, full-length, pathogenic control missense variant in the coiled-coil domain, introduced in the WT plasmid; Made by site-directed mutagenesis of the plasmid of m1; also called c.4232T > C; source: HEK293FT, transiently co-transfected, in lysate
B7: BRCA1 p.Lys503Arg (full-length, mCherry-tagged) (natural protein, human, UniProt P38398 1-1863, looked up)
chain: B1 chain with K503R, D933G
notes: BRCA1, human, full-length, rare germline missense variant introduced in the WT plasmid; Made by site-directed mutagenesis of the plasmid of m1; also called c.1508A > G; source: HEK293FT, transiently co-transfected, in lysate

Target: T1, Flag-PALB2 WT (Partner and Localiser of …)
Experiment: co-IP; HEK293FT co-transfected with BRCA1 WT or variant and Flag-PALB2; 2 mg lysate protein incubated 90 min at 4 °C with Flag antibody coupled to Dynabeads Protein G; non-denaturing elution; BRCA1 in the IP detected by anti-BRCA1 blot, normalised to the anti-Flag signal, % of WT
Conditions: partners not purified

Binder | Co-IP PALB2 (% of WT)
B1 | 115 % of WT
B2 | 59 % of WT
B3 | 72 % of WT
B4 | 86 % of WT
B5 | 89 % of WT
B6 | 11 % of WT
B7 | 18 % of WT

Target: T2, BARD1-V5 WT (BRCA1-Associated RING …)
Experiment: co-IP; HEK293FT co-transfected with BRCA1 WT or variant and BARD1-V5; 2 mg lysate protein incubated 90 min at 4 °C with V5 antibody coupled to Dynabeads Protein G; non-denaturing elution; BRCA1 in the IP detected by anti-BRCA1 blot, normalised to the anti-V5 signal, % of WT
Conditions: partners not purified

Binder | Co-IP BARD1 (% of WT)
B1 | 73 % of WT
B2 | 71 % of WT
B4 | 60 % of WT
B5 | 77 % of WT
